Substrate: CCCC(=O)OP(=O)(O)O
Test: purified protein
Assay type: biochemical, Listeria monocytogenes
Conditions: 500 µM CoA, 100 mM Tris pH 7.5, 25 °C

B1: Ptb (phosphotransbutyrylase, LmPtb) (Listeria monocytogenes EGD-e) (protein)
chain: MTKSRFFSDVAETSSFVFAVAGADDEVVLETIRLALKQKLGKFLLFGKKEDKTLTANESVTWIQTDTAEAAAQGAILAVKNKEADILVKGFIPTATLMHHVLKKENGLRTDQLLSQIAIFDIPTYHKPLLITDCAMNVAPKTKEKIAITENALAVAHQIGITNPKIALLSAVEEVTAKMPSTLEAQEVVQHFGNQISVSGPLALDVAISKEAALHKGITDSSAGEADILIAPNIETGNALYKSLVYFAGAKVGSAVVGAKVPIVISSRNDSPENKLASFILTVRLVEK
Work on B1 yielded a Km of 1040 µM.

From PMC4947441
